Experimental findings from patent US20190359662A1 are described below.

Assay in all cases: cell-based or functional assay
In test [1] the target is hNav1.1 (human) (UniProt P35498).
Test [2] has as its target hNav1.5 (human) (UniProt Q14524).
Test [3] concerns the target hNav1.3 (human) (UniProt Q9NY46).
In test [4] the target is hNav1.6 (human) (UniProt Q9UQD0).
Test [5] concerns the target hNav1.4 (human) (UniProt P35499).
The target in test [6] is hNav1.8 (human) (UniProt Q9Y5Y9).
Test [7] has as its target hNav1.2 (human) (UniProt Q99250).

Chain of hNav1.5 (human) (Q14524 whole entry): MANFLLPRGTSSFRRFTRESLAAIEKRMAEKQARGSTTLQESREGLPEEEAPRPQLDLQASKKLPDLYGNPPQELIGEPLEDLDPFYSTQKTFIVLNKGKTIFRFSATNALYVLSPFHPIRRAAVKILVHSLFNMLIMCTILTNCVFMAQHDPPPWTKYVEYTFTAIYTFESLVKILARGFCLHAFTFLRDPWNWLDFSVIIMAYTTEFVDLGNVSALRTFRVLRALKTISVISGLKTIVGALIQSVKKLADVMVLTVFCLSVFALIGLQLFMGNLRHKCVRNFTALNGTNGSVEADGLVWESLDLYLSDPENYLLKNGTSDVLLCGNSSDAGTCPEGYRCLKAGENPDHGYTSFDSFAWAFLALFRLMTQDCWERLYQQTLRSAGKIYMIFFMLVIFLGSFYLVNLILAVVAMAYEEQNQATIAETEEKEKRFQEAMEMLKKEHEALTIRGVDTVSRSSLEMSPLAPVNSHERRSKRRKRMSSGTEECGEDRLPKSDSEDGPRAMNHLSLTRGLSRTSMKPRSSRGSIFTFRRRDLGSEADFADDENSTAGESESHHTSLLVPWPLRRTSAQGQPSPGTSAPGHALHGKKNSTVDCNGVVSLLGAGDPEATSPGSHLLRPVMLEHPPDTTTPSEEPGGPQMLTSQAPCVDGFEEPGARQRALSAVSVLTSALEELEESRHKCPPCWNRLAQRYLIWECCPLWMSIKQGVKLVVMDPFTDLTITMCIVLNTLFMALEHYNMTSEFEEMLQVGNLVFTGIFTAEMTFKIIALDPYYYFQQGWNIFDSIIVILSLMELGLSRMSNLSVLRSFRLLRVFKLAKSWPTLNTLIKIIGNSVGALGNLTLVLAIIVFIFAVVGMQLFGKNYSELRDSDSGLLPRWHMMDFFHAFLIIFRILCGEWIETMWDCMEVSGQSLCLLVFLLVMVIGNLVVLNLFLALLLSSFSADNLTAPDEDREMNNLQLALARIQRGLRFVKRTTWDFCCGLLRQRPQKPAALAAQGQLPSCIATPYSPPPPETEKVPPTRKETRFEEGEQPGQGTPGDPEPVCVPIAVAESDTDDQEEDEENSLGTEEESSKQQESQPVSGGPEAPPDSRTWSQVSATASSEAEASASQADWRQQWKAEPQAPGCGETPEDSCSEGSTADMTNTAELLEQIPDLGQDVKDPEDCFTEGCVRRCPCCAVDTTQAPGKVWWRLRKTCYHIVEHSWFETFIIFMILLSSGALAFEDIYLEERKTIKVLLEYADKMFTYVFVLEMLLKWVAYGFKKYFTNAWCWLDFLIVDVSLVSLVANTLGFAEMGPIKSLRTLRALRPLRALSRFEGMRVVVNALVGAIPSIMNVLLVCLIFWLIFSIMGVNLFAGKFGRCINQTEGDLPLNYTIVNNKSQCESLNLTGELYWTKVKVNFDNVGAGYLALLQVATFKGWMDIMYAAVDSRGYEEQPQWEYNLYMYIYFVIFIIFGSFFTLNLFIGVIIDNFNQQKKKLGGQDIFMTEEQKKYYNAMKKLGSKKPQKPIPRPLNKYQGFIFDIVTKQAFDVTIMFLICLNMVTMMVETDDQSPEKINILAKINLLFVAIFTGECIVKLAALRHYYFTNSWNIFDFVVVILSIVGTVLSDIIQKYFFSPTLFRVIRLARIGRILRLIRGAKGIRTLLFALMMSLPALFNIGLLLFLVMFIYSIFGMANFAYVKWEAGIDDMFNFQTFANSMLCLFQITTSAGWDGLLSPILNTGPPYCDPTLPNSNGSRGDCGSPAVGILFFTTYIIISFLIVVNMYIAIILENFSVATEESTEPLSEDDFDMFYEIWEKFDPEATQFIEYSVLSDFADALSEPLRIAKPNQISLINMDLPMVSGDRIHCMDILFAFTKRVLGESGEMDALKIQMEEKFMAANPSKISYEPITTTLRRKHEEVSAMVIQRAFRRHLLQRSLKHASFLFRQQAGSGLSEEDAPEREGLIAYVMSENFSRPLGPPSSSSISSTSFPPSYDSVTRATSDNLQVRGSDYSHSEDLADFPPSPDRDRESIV
Chain of hNav1.4 (human) (P35499 whole entry): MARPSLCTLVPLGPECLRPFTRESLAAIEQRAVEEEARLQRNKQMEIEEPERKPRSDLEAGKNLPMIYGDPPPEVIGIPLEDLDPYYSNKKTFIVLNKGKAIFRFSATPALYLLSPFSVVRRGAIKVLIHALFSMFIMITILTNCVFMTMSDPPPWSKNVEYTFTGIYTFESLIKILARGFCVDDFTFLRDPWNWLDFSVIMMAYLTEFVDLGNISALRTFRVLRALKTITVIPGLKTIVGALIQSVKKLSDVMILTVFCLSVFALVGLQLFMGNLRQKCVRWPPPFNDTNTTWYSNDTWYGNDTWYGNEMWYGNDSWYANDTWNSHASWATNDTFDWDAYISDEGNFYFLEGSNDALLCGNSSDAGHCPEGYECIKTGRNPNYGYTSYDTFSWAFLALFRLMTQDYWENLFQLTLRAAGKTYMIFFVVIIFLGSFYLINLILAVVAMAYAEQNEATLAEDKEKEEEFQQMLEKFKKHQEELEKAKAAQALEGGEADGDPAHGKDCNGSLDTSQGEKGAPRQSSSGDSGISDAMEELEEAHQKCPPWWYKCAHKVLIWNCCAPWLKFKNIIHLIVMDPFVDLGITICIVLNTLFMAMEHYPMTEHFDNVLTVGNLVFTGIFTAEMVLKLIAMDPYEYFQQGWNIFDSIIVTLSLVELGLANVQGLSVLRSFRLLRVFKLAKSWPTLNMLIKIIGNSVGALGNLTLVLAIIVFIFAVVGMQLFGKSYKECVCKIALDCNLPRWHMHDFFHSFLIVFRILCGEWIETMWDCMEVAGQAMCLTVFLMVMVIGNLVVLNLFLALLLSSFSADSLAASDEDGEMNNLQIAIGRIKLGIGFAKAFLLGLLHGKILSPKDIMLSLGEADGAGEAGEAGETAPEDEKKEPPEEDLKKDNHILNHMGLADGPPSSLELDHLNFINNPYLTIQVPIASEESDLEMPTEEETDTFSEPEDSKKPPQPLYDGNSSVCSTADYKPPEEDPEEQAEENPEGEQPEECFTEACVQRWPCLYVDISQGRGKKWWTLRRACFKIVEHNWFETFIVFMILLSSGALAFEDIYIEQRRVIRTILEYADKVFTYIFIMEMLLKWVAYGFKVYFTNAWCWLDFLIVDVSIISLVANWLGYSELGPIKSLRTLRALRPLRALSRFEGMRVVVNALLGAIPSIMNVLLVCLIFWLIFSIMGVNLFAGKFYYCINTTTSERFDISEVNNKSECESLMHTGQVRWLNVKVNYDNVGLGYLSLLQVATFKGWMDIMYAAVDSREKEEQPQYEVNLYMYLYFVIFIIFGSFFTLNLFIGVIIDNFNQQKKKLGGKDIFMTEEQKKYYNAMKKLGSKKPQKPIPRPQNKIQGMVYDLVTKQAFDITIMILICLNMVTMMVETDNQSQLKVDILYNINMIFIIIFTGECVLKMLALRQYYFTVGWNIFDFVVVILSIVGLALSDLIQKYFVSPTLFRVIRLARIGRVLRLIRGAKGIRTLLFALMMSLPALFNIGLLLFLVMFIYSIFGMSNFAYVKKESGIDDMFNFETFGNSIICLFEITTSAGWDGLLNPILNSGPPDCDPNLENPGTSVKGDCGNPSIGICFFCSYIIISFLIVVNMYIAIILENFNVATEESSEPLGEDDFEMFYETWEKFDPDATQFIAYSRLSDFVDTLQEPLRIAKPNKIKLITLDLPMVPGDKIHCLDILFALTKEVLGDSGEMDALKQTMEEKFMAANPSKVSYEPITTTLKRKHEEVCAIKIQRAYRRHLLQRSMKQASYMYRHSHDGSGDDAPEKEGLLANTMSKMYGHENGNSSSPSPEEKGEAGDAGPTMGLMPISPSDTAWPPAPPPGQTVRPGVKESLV

On to Ac-Pnc1a (peptide), for which the IC50, membrane potential assay is 23 µM in test [1]; more than 30 µM in test [2]; 8 µM in test [3]; 16 µM in test [4]; 14 µM in test [5]; more than 30 µM in test [6]. The substance also came in with an IC50, membrane potential assay in test [7] of 5 µM.

With Pnc1a-CONH2 (peptide), the IC50, membrane potential assay in test [1] was 8 µM; in test [2] it was more than 30 µM; in test [3], 7 µM; in test [4], 20 µM; in test [5], 16 µM; in test [6], more than 30 µM. The substance also had an IC50, membrane potential assay in test [7] of 3 µM.
